# T1: GST-AcbHLH144 (pineapple, UniProt A0A6P5FRB5 1-240)
# T1 sequence: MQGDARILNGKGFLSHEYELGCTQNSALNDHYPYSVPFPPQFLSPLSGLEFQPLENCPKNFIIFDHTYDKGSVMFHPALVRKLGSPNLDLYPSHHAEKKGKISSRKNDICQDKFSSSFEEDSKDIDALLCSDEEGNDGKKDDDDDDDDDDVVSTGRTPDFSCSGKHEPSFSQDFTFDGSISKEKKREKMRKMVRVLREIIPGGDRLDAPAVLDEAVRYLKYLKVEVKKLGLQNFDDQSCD
# B1: Ac4CL5 promoter N-box probe (dsDNA)
# DNA 1: CGGAGCACCTGCCCCTGCACGAGTACTGCTTCGAGCAGCT
# DNA 2: AGCTGCTCGAAGCAGTACTCGTGCAGGGGCAGGTGCTCCG
# Target: T1, GST-AcbHLH144
# Assay: EMSA; Chemiluminescent EMSA Kit (Beyotime); buffer, salt, pH and temperature not stated
# Settings: protein: recombinant; tags: N-terminal GST (pGEX-4T-1); chain copies: 2; label: biotin; blunt
binder,measurement,value
B1,binding result,binds
